Data from patent publication CN109021108A (UNIV NANJING MEDICAL, dated 2018).

Key:
GPC3-his蛋白 = target: T1, GPC3-his蛋白 (UniProt P51654 25-559); test: ELISA titration, GPC3-his coated at 5 μg/ml, 32A9 IgG from 20 μg/ml in 1:2 dilutions, fitted affinity curve
T1 construct: also called GPC3蛋白; not shown: his tag

[1] = target: T2, GPC3 on A431-GPC3细胞 (A431 cells stably transfected with GPC3 cDNA) (UniProt P51654 25-554); test: flow cytometry titration on A431-GPC3 cells, 32A9 IgG from 60 μg/ml in 1:2 dilutions, fitted affinity curve
T2 construct: whole, on cells; also called GPC3阳性细胞; GPC3阳性靶细胞
T2 sequence (P51654 25-554 limits assumed, form in doubt): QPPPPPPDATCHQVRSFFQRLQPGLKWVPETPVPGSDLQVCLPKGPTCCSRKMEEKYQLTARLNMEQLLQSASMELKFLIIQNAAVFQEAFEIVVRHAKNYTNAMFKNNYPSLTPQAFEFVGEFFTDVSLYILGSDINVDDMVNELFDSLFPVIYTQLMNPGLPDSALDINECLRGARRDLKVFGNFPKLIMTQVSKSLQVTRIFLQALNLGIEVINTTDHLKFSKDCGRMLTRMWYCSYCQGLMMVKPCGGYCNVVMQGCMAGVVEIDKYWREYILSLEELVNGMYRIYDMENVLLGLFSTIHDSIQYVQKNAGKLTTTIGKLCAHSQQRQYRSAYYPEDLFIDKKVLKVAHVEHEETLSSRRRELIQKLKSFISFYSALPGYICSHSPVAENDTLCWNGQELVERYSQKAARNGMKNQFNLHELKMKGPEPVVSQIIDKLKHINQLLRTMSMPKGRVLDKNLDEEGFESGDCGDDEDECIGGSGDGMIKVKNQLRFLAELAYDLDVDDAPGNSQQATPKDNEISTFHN

T1 sequence (P51654 25-559 limits assumed): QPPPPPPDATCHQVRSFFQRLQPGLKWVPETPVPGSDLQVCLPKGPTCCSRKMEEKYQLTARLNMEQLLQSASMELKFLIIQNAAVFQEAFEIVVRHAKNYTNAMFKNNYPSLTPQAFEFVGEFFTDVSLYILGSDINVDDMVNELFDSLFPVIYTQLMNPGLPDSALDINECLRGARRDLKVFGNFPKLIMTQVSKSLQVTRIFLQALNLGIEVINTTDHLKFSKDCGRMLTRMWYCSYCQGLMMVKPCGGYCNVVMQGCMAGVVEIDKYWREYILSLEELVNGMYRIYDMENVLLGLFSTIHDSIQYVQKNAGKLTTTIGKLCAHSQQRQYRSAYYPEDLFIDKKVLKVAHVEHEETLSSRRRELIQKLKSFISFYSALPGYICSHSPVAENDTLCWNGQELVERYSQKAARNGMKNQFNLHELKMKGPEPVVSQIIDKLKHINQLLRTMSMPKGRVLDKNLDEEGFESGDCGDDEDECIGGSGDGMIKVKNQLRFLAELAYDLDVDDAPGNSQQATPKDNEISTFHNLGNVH

Kd (GPC3-his蛋白): 1.93 nM
Kd [1]: 6.25 nM
B1: 32A9IgG重组蛋白 (抗体32A9, anti-GPC3 fully human antibody, IgG form) (antibody, V domains shown)
VH: EVQLLESGGGLVQPGGSLRLSCAASGFTFSSYAMSWVRQAPGKGLEWVSGIAYNGASTAYADSVKGRFTISRDNSKNTLYLQMNSLRAEDTAVYYCAKSAGSFDYWGQGTLVTVSS
VL: DIQMTQSPSSLSASVGDRVTITCRASQSISSYLNWYQQKPGKAPKLLIYSASSLQSGVPSRFSGSGSGTDFTLTISSLQPEDFATYYCQQDYAYPYTFGQGTKVEIK
notes: also called 32A9IgG蛋白
